From paper PMC5828395 (Genes & Development, 2018)
Values belong to the molecule of their own block, whether it stands above or below them. Where no end group is shown, it is not given here.

Assays:
[1] = target: GAS41 YEATS domain (amino acids 15–159) (human) (UniProt O95619); experiment: ITC
[2] = target: GAS41 YEATS domain (amino acids 15–159) (human, UniProt O95619 15-159); experiment: ITC
Sequence of GAS41 YEATS domain (amino acids 15–159) (O95619 15-159): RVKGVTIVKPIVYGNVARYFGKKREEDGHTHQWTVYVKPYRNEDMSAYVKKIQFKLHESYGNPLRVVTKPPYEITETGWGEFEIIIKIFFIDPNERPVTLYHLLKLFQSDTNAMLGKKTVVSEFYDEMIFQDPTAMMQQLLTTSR

Sequence of GAS41 YEATS domain (amino acids 15–159) (human) (O95619 15-159): as above

Kd [1]: 32.7 µM
Molecule: H3_(15–39)K27ac peptide (from UniProt P68431 16-40)

Kd [2]: 13 µM
B1: H3_(1–15)K14ac peptide (peptide, UniProt P68431 2-16, looked up)
peptide: ARTKQTARKSTGGK(Ac)A
